In patent publication US20220186223, “T-LYMPHOCYTE BINDING APTAMERS” (Aummune Ltd., published 2022):

What follows are binders tested against CD3 epsilon (CD3ε), recombinant extracellular Fc chimera (Homo sapiens, UniProt P07766 P07766:23-126) (assay: HPLC size exclusion shift, 1 hr 37 C and 4 C). Details: tags: Fc chimera, His tag; Abcam ab220590; label: Cy5 via hybridised CpG'-Cy5 complementary strand.
Method: 1 μM of folded Cy5 labeled aptamer was mixed with 50 µL of protein to a final volume of 60 ul and incubated for 1 hr at 4° C. or 37° C. Next, to detect the Cy-labelled aptamers, samples were analyzed at 570 nm absorption via HPLC ProSEC 300S size exclusion column (Agilent).
Top five candidates (CS6, CS7, CS8, CS8c, and CS9 SEQ ID NO. 1-5) were synthesized with a 5(5′) phosphothioated CpG motif and assayed for Human CD3ε (hCD3ε) binding via the HPLC size exclusion column. In this method, the aptamers were labelled with Cy5 complementary sequence to the CpG site (Cy5-CpG′). Then, the folded-labelled candidates are incubated, each, with the CD3ε- recombinant protein or with negative control IgG1 (1 hr at 37° C. and 4° C.) and analyzed by HPLC ProSEC 300S size exclusion column (Agilent) at 570 nm absorption. Upon protein binding, the aptamer-protein complex has a greater mass than a free aptamer and as a result, the retention time (RT) at the column is expected to be shorter. Inversely, in the case of non-binding aptamer, the RT in the presence of protein will be the same as in the absence of the protein. As a control, PolyT sequence was used.

Sequence of CD3 epsilon (CD3ε), recombinant extracellular Fc chimera (P07766 23-126, change not shown, one chain of several): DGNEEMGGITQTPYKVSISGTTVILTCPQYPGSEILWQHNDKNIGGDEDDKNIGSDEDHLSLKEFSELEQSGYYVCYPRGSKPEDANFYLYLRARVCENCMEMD

Binding result, binds:
CATTTCATAGGGCTGCTTAGGATTGCGAAGGTAATGCCAG (ssDNA, synthesized with 5' CpG motif having 5 PS linkages (extension not in ref)) [CS7]
CTTTTAGGTCTGCTTAGGATTGCGAAAAAAG (ssDNA, synthesized with 5' CpG motif having 5 PS linkages (extension not in ref)) [CS8c (CS8cut)]
CCCTTACCCCTTTTAGGTCTGCTTAGGATTGCGAAAAAAG (ssDNA, synthesized with 5' CpG motif having 5 PS linkages (extension not in ref)) [CS8]
TTGTAAGGACTGCTTAGGATTGCGAAAACAATATTCGTAT (ssDNA, synthesized with 5' CpG motif having 5 PS linkages (extension not in ref)) [CS9]
